The record followed here is patent publication US20190062438A1 (CSL, published 2019).

By Kd is commonly meant a measure of binding affinity in units of concentration. A lower Kd goes with a tighter complex. Broadly, the koff is the rate constant with which the complex falls apart. A low value points to slow dissociation. The term kon denotes the rate constant with which the complex forms.

The labels stand for the following.
B1: 9A2-VR24.102 Fab (Fab, V domains shown)
VH: EVQLLESGGGLVQPGGSLRLSCAASGFTFPWYRVHWVRQAPGKGLEWVSSIRSSGGFPFYNSSVKGRFTISRDNSKNTLYLQMNSLRAEDTAVYYCARFYDSFFDIWGQGTMVTVSS
VL: DIQMTQSPSSVSASVGDRVTITCRASQGISSWLAWYQQKPGKAPKLLIYAASSLQSGVPSRFSGSGSGTDFTLTISSLQPEDFATYYCQQANSFPITFGQGTRLEIKR
notes: recombinant Fab
B2: 9A2-VR24.122 Fab (Fab, V domains shown)
VH: B1 VH with P58T, F59Y, S63E
VL: B1 VL
notes: recombinant Fab
B3: 9A2-VR39.22 Fab (Fab, V domains shown)
VH: EVQLLESGGGLVQPGGSLRLSCAASGFTFQWYHVIWVRQAPGKGLEWVSSINGRGRVTYYADSVKGRFTISRDNSKNTLYLQMNSLRAEDTAVYYCARFYDSFFDIWGQGTMVTVSS
VL: B1 VL
notes: recombinant Fab
B4: 9A2-VR39.04 Fab (Fab, V domains shown)
VH: B3 VH with Q30N, Y32F, H33Q, V34H
VL: B1 VL
notes: recombinant Fab
B5: 9A2-VR24.124 Fab (Fab, V domains shown)
VH: B1 VH with P58T, F59Y, N61T, S62P, K65R
VL: B1 VL
notes: recombinant Fab
B6: 9A2-VR39.110 Fab (Fab, V domains shown)
VH: B3 VH with Q30V, V34H
VL: B1 VL
notes: recombinant Fab
B7: 9A2-VR39.17 Fab (Fab, V domains shown)
VH: B3 VH with Q30P, W31F, V34K, I35V
VL: B1 VL
notes: recombinant Fab
B8: 9A2-VR39.93 Fab (Fab, V domains shown)
VH: B3 VH with Q30S, W31H, V34M, I35L, A61N, D62P, S63A, V64W, G66K
VL: B1 VL
notes: recombinant Fab
B9: 9A2-VR39.109 Fab (Fab, V domains shown)
VH: B3 VH with Q30M, V34H
VL: B1 VL
notes: recombinant Fab
B10: 9A2-VR39.02 Fab (Fab, V domains shown)
VH: B3 VH with Q30Y, V34M
VL: B1 VL
notes: recombinant Fab
B11: 9A2-VR24.111 Fab (Fab, V domains shown)
VH: B1 VH with F59M, S62P, S63H
VL: B1 VL
notes: recombinant Fab
B12: 9A2-VR39.24 Fab (Fab, V domains shown)
VH: B3 VH with Q30H, W31H, Y32F
VL: B1 VL
notes: recombinant Fab
B13: 9A2-VR39.01 Fab (Fab, V domains shown)
VH: B3 VH with Q30F, Y32F, V34H, I35V
VL: B1 VL
notes: recombinant Fab
B14: 9A2-VR24.107 Fab (Fab, V domains shown)
VH: B1 VH with F59Y, S62P, S63F
VL: B1 VL
notes: recombinant Fab
B15: 9A2-VR24.110 Fab (Fab, V domains shown)
VH: B1 VH with F59Y, S62N, S63H
VL: B1 VL
notes: recombinant Fab
B16: 9A2-VR39.177 Fab (Fab, V domains shown)
VH: B3 VH with Q30S, W31H, V34M, I35L, D62L, S63E, V64Y, G66K
VL: B1 VL
notes: recombinant Fab
B17: 9A2-VR39.102 (antibody, V domains shown)
VH: B3 VH with Y32F, V34Y
VL: B1 VL
B18: 9A2-VR39.105 (antibody, V domains shown)
VH: B3 VH with Q30P, W31Y, V34M
VL: B1 VL
B19: 9A2-VR39.24 (antibody, V domains shown)
VH: B3 VH with Q30H, W31H, Y32F
VL: B1 VL
B20: 9A2-VR39.23 (antibody, V domains shown)
VH: B3 VH with Q30H, W31H, V34T, I35V
VL: B1 VL
B21: 9A2-VR39.103 (antibody, V domains shown)
VH: B3 VH with W31H, Y32F, V34W, I35V
VL: B1 VL
B22: 9A2-VR39.98 (antibody, V domains shown)
VH: B3 VH with Q30E, W31H, V34T
VL: B1 VL
B23: 9A2-VR39.97 (antibody, V domains shown)
VH: B3 VH with Q30P, Y32F, V34F, I35V
VL: B1 VL
B24: 9A2-VR39.22 (antibody, V domains shown)
VH: B3 VH
VL: B1 VL

Substitutions are numbered along the chain they refer to.

One assay addresses T1, soluble Homo sapiens CD131 comprising a C-terminal 6xHis tag (human, UniProt P32927 17-438).
T1 construct: truncated after Ser438, C-terminal 6xHis; also called shCD131; shβc
T1 sequence: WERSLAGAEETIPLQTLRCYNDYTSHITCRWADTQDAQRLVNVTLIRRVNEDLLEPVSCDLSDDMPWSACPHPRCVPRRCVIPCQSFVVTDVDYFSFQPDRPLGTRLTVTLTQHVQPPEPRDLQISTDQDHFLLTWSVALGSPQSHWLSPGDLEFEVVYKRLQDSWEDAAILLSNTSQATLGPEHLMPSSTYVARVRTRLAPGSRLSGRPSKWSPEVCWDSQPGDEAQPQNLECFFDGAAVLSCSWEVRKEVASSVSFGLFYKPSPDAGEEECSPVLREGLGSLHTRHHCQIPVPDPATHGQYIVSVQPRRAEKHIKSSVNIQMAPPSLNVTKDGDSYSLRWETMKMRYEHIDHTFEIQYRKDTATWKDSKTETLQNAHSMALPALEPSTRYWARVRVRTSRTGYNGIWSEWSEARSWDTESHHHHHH
The assay is described as follows: SPR, Fab over captured shCD131. The protocol: Binding kinetics were measured using SPR with a BIAcore™ A-100 instrument (GE Healthcare Life Sciences). An anti-C-terminal Hexa-His antibody (3H3) was immobilized on spots 1, 2, 4 and 5 of each flow cell of a CM-5 sensor chip (GE Healthcare Life Sciences) using amine-coupling chemistry (116). […] As shβc is a dimer, kinetics assays were performed with shβc captured on the sensor surface, and purified Fab injected as the analyte. Avidity effects were avoided by the use of Fab rather than whole IgG.
shCD131 was captured on spots 1 and 5 of each flow cell for 2 minutes at a concentration of 0.4 μg/ml. […] For some analysis purified Fab was injected over each flow cell for 3 minutes and dissociation was monitored for a further 10 minutes. Regeneration of the surface was performed after each cycle with a 40 second injection of 25 mM glycine, pH 2.0. The analysis was performed with Fabs at several concentrations between 100 and 0.31 nM, with each concentration analyzed twice and in random order. The analysis was performed at a flow rate of 30 μl/min in HBS-EP buffer (10 mM Hepes, 150 mM NaCl, 3 mM EDTA, 0.005% Tween 20, pH 7.4) at 37° C. Responses from spots 2 and 4 of each flow cell, (in which shβc was not captured, but otherwise treated identically), were subtracted from those of spots 1 and 5 respectively to produce reference subtracted data. Reference subtracted responses from a blank injection comprising buffer alone were subtracted from the resultant sensorgrams to produce double referenced data suitable for kinetic analysis. Double-referenced sensorgrams were fitted using non-linear regression to a model describing 1:1 kinetics, including a term for mass transport limitation. The Rₘₐₓ value was fitted locally to account for slight deviations in the level of sCD131 captured, with association rate (kₐ), dissociation rate (kd) and equilibrium dissociation constant (KD) fitted globally.
In turn, B1 returned a dissociation constant (Kd) of 0.188 nM, a koff of 0.000556 s⁻¹ and a kon of 2.95e+06 M⁻¹ s⁻¹.

B2: the Kd worked out at 0.353 nM, the koff is 0.000897 s⁻¹ and the kon is 2.54e+06 M⁻¹ s⁻¹.

Molecule B3 had a Kd of 0.141 nM, a koff of 0.000441 s⁻¹ and a kon of 3.13e+06 M⁻¹ s⁻¹.

For the molecule B4, binding was characterised by a dissociation constant (Kd) of 0.329 nM, the koff turned out to be 0.00117 s⁻¹ and the kon is 3.55e+06 M⁻¹ s⁻¹.

Consider B5, for which the Kd came to 0.25 nM, the koff was 0.00076 s⁻¹ and the kon was 2.9e+06 M⁻¹ s⁻¹.

B6 came in with a Kd of 0.11 nM, a koff of 0.00039 s⁻¹ and a kon of 3.8e+06 M⁻¹ s⁻¹.

In turn, B7 had a Kd of 0.201 nM, a koff of 0.000566 s⁻¹ and a kon of 2.81e+06 M⁻¹ s⁻¹.

Turning to B8, binding was put at a Kd of 0.171 nM, the koff is 0.00071 s⁻¹ and the kon turned out to be 4.15e+06 M⁻¹ s⁻¹.

As for B9, the Kd is 0.098 nM, the koff was 0.00033 s⁻¹ and the kon was 3.4e+06 M⁻¹ s⁻¹.

B10 returned a Kd of 0.0877 nM, a koff of 0.000341 s⁻¹ and a kon of 3.89e+06 M⁻¹ s⁻¹.

In turn, B11 had a Kd of 0.236 nM, a koff of 0.000637 s⁻¹ and a kon of 2.7e+06 M⁻¹ s⁻¹.

B12: the Kd was 0.169 nM, the koff was 0.0005 s⁻¹ and the kon stood at 2.96e+06 M⁻¹ s⁻¹.

B13: binding was characterised by a dissociation constant (Kd) of 0.102 nM, the koff was 0.00031 s⁻¹ and the on-rate constant (kon) amounted to 3.04e+06 M⁻¹ s⁻¹.

In turn, B14 registered a Kd of 0.183 nM, a koff of 0.00053 s⁻¹ and a kon of 2.89e+06 M⁻¹ s⁻¹.

For the molecule B15, binding was characterised by a dissociation constant (Kd) of 0.151 nM, the koff came out at 0.000475 s⁻¹ and the kon was determined as 3.15e+06 M⁻¹ s⁻¹.

The molecule B16 returned a Kd of 0.15 nM, a koff of 0.000554 s⁻¹ and a kon of 3.69e+06 M⁻¹ s⁻¹.

In a further assay the target is T2, human CD131 (human, UniProt P32927 17-897).
T2 sequence: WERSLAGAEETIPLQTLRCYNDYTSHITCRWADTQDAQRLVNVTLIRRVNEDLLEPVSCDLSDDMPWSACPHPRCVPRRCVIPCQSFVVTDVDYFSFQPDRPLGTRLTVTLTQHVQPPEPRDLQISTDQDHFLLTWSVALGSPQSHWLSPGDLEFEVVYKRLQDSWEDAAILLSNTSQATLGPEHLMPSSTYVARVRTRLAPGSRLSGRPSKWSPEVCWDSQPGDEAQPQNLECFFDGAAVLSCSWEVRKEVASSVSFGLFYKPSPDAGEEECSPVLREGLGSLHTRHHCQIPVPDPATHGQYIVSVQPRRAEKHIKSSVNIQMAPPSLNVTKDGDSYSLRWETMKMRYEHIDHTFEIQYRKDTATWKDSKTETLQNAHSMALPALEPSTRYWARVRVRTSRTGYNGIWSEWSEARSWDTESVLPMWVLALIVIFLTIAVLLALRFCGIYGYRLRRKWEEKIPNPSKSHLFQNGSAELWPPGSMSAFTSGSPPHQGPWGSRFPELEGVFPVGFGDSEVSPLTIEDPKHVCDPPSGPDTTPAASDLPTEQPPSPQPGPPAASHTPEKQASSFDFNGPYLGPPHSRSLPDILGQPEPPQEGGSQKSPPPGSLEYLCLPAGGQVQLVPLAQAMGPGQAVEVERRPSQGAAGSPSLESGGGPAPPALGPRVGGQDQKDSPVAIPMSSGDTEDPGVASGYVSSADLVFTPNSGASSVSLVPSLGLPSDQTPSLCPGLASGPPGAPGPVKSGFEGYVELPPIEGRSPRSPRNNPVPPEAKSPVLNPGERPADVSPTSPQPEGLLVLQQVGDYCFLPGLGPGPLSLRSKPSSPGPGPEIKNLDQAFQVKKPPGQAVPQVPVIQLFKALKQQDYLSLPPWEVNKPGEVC
The assay is described as follows: cell-based or functional assay.
Consider B17, for which the “IC50 GM-CSF, TF-1 proliferation” value is 2.29 nM.

For B18, the “IC50 GM-CSF, TF-1 proliferation” value was 0.53 nM.

As for B19, the “IC50 GM-CSF, TF-1 proliferation” value was found to be 0.42 nM.

Take B20: the “IC50 GM-CSF, TF-1 proliferation” value came out at 0.9 nM.

B21: the “IC50 GM-CSF, TF-1 proliferation” value is 5.14 nM.

Regarding B22, the “IC50 GM-CSF, TF-1 proliferation” value is 1.44 nM.

As for B23, the “IC50 GM-CSF, TF-1 proliferation” value is 0.92 nM.

As to B24, the “IC50 GM-CSF, TF-1 proliferation” value is 0.5 nM.
